The Human Domainome abundance scans (Beltran et al. 2025)

B1: Cytoplasmic polyadenylation element-binding protein 2, residues 513 to 575; numbered along this chain, Q7Z5Q1 (parent)
chain: KRVEVKPYVLDDQMCDECQGARCGGKFAPFFCANVTCLQYYCEFCWANIHSRAGREFHKPLVK

Variants of: B1
Assay: abundance fitness (aPCA) (normalised: wild type 0, dead -1); higher = more abundant; growth selection in yeast, the domain comes from the species named
Settings: Homo sapiens

Abundance fitness: each site, then its substitutions
M14: E -0.073 | R -0.154 | I -0.082 | H -0.33 | Y 0.082 | Q -0.036 | K 0.064 | C -0.104 | S 0.098 | P -0.007 | G -0.187 | W -0.352 | F -0.067 | V -0.085 | L -0.167 | A -0.098 | T 0.069 | D 0.039
C18: I -1.05 | P -0.84 | W -1.07 | T -0.643 | Y -0.966 | N -0.748 | K -0.677 | R -0.641 | S -0.764 | H -1.01 | A -0.674 | F -0.954 | L -0.966 | E -0.658
F31: L -0.328 | Y 0.033 | P -0.588 | T -0.57 | E -0.291 | H -0.626 | K -0.332 | N -0.608 | W -0.04 | M -0.461 | C -0.547 | R -0.324 | A -0.644 | V -0.622 | S -0.591 | Q -0.425 | G -0.685 | D -0.962
D16: P -0.129 | M -0.089 | E 0.047 | G 0.137 | V -0.036 | L -0.271 | T 0.115 | A 0.098 | K 0.056 | Y 0.192 | H 0.076 | R 0.015 | W -0.013 | S 0.193 | C 0.053 | N 0.253 | I 0.042 | F 0.145
A33: E 0.077 | F -0.336 | M -0.18 | G -0.047 | D 0.12 | N 0.002 | K -0.147 | H -0.177 | L -0.311
Q19: D -0.056 | M -0.091 | P -0.579 | A -0.008 | T -0.056 | Y -0.224 | I -0.503 | S -0.071 | H -0.134 | R -0.015 | W -0.295 | V -0.093 | G -0.036 | F -0.151 | L 0.075 | E 0.006 | N -0.446 | C -0.22
C32: R -0.739 | E -0.683 | M -0.793 | N -0.724 | S -0.664 | F -1.1 | H -0.917 | I -0.47 | Y -0.837 | L -0.882 | G -0.802 | P -0.737 | Q -0.742 | T -0.779 | W -0.929 | K -0.617
G24: P -0.21 | Q 0.066 | A -0.052 | K -0.068 | N 0.172 | H -0.252 | T -0.325 | M -0.275 | L -0.089 | R -0.135 | I -0.418 | V -0.083 | C -0.242 | E 0.018 | S -0.046 | Y -0.088 | W -0.278
G25: N -0.025 | T -0.088 | E -0.195 | P -0.321 | V -0.323 | A -0.147 | C -0.349 | Q -0.066 | R -0.081 | S -0.138 | D -0.082 | I -0.538 | F -0.118 | H -0.19 | L -0.207 | W -0.075 | K 0.016 | M -0.127
A21: M -0.22 | N -0.037 | C -0.447 | D -0.159 | W -0.41 | F -0.23 | H -0.238 | Q -0.141 | L -0.203 | S -0.018 | R -0.033 | I -0.217 | V -0.098 | P -0.52 | Y -0.32 | E -0.037 | T -0.117
C15: W -0.759 | N -0.592 | M -0.507 | I -0.626
